# Source: patent US20130039923A1 (Novo Nordisk, published 2013)
# Numbering of substitutions follows the chain as printed.
# B1: human anti-hIL20 monoclonal antibody 15D2 (antibody, V domains shown)
# VH: QVQLVQSGAEVKRPGASVKVSCKASGYTFTNDIIHWVRQAPGQRLEWMGWINAGYGNTQYSQNFQDRVSITRDTSASTAYMELISLRSEDTAVYYCAREPLWFGESSPHDYYGMDVWGQGTTVTVSS
# VL: AIQLTQSPSSLSASVGDRVTITCRASQGISSALAWYQQKPGKAPKLLIYDASSLESGVPSRFSGSGSGTDFTLTISSLQPEDFATYYCQQFNSYPLTFGGGTKVEIKR
# notes: also called 15D2-wt; 15D2 wild-type
# B2: human anti-hIL20 monoclonal antibody 5B7 (antibody, human IgG4, V domains shown)
# VH: B1 VH with T30S, N31S, D32H, I34M, Q59K, S69T, S106L
# VL: B1 VL
# notes: described as human IgG4; also called 5B7-wt
# Experiments:
# [1] = biological target: T1, recombinant human interleukin-20 (human, UniProt Q9NYY1 25-176); experiment: cell-based or functional assay
# T1 sequence: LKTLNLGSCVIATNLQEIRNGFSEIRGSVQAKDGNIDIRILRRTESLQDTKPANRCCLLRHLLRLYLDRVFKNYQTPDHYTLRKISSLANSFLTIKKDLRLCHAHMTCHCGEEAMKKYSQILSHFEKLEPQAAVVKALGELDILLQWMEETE
# [2] = biological target: T1, recombinant human interleukin-20; experiment: SPR (Biacore 3000/T100), antibody amine-coupled on CM5, recombinant hIL20 injected 3.125-100 nM, 1:1 Langmuir, 25 C; antibody from hybridoma
# Procedure: Affinity studies were performed using a direct binding procedure, with the monoclonal antibody covalently coupled via free amine groups to the carboxymethylated dextrane membrane (CM5) on the sensor chip surface. […] The kinetic parameters for the interaction could be calculated using a 1:1 interaction Langmuir fitting model.
# The purified monoclonal antibodies were immobilized in individual flow cells on a CM5 type sensor chip. Immobilizations were performed using a standard amine coupling procedure, aiming for an immobilization level of 1000 Resonance Units (RU). The antibodies were diluted to 5 μg/ml in 10 mM NaAc pH 5.0. […] Association (injection) was 3 min., followed by a 30 min. dissociation (wash) period. Flow rate was 30 μl/min. Experiments were performed at 25° C. Regeneration of the surface following each cycle, was accomplished by injection of 30 sec. pulse of 10 mM Glycin-HCl pH 1.8, at a 30 ul/min flow rate. Detection in all flow cells simultaneously. Flow cell No. 1 contained no immobilized antibody, and was used for subtraction of background and bulk. […] Data was inspected for mass-transport limitations prior to calculation of the kinetic parameters. Experiments were performed on Biacore 3000 and T100 instruments. Data was evaluated using Biaeval 4.1 and Biacore T100 evaluation software.
# [3] = biological target: T2, Peptide no. 86 (Figure 6A); experiment: 18mer hIL20 peptide array on cellulose, 4 residue walk; fluorescein-labelled antibody; fluorescence as OD
# T2 construct: also called Peptide no
# T2 peptide: NYQTPDHYTLRKISSLAN
# Procedure: (§1) The screenings were done using fluorescence labelled antibodies. The labelling was done by gel-filtering the antibody stock against 1% NaHCO3, using NAP5 column (GE Healthcare according the manual from manufacturer. This was followed by adding 25 mole equivalents of 5(6)-carboxyfluorescein N-hydroxysuccinimide ester (Sigma, C1609) dissolved in DMSO. The coupling was allowed to continue for 2 hours followed by a gelfiltration against TRIS washing buffer (50 mM TRIS, pH=7.4, 0.15M NaCl, 0.1 M ArgHCl, 0.05% Tween 20) in order to removed uncoupled fluorescein.
# (§2) Screening of arrays were done by adding 10 μl of antibody to 30 ml incubation buffer (0.5% BSA, 50 mM TRIS, pH=7.4, 0.15M NaCl, 0.1 M ArgHCl, 0.05% Tween 20). The sheets were incubated for 1-2 hours, followed by washing five times with washing buffer. […] The fluorescence intensity were measured and transformed into digits that were exported to Prism 5 (Graph Pad Software, USA) for further analysis.
# [4] = biological target: T3, Peptide no. 87 (Figure 6A); experiment: as above
# T3 construct: also called Peptide no
# T3 peptide: PDHYTLRKISSLANSFLT
# Procedure: as §1, §2
# [5] = biological target: T4, Peptide no. 47 (Figure 8A); experiment: Ala-scan peptide array of hIL20 74-96 on cellulose; fluorescein-labelled antibody; fluorescence as OD
# T4 construct: Ala-scan peptide on the array; also called Peptide no; T81A
# T4 peptide: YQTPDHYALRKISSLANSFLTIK
# Procedure: as §1, §2
# [6] = biological target: T5, Peptide no. 53 (Figure 8A); experiment: as above
# T5 construct: Ala-scan peptide on the array; also called Peptide no; S87A
# T5 peptide: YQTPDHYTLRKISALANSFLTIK
# Procedure: as §1, §2
# [7] = biological target: T6, Peptide no. 58 (Figure 8A); experiment: as above
# T6 construct: Ala-scan peptide on the array; also called Peptide no; L93A
# T6 peptide: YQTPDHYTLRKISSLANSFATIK
# Procedure: as §1, §2
# [8] = biological target: T7, Peptide no. 57 (Figure 8A); experiment: as above
# T7 construct: Ala-scan peptide on the array; also called Peptide no; F92A
# T7 peptide: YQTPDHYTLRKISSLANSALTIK
# Procedure: as §1, §2
# [9] = biological target: T8, Peptide no. 55 (Figure 8A); experiment: as above
# T8 construct: Ala-scan peptide on the array; also called Peptide no; N90A
# T8 peptide: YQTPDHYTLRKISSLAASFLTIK
# Procedure: as §1, §2
# [10] = biological target: T9, Peptide no. 42 (Figure 8A); experiment: as above
# T9 construct: Ala-scan peptide on the array; also called Peptide no; T76A
# T9 peptide: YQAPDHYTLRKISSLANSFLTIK
# Procedure: as §1, §2
# [11] = biological target: T10, Peptide no. 54 (Figure 8A); experiment: as above
# T10 construct: Ala-scan peptide on the array; also called Peptide no; L88A
# T10 peptide: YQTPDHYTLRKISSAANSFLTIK
# Procedure: as §1, §2
# [12] = biological target: T11, Peptide no. 61 (Figure 8A); experiment: as above
# T11 construct: Ala-scan peptide on the array; also called Peptide no; K96A
# T11 peptide: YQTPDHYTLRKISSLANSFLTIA
# Procedure: as §1, §2
# [13] = biological target: T12, Peptide no. 51 (Figure 8A); experiment: as above
# T12 construct: Ala-scan peptide on the array; also called Peptide no; I85A
# T12 peptide: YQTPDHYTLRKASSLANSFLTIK
# Procedure: as §1, §2
# [14] = biological target: T13, Peptide no. 50 (Figure 8A); experiment: as above
# T13 construct: Ala-scan peptide on the array; also called Peptide no; K84A
# T13 peptide: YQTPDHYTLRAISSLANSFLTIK
# Procedure: as §1, §2
# [15] = biological target: T14, Peptide no. 56 (Figure 8A); experiment: as above
# T14 construct: Ala-scan peptide on the array; also called Peptide no; S91A
# T14 peptide: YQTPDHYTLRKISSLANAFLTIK
# Procedure: as §1, §2
# [16] = biological target: T15, Peptide no. 52 (Figure 8A); experiment: as above
# T15 construct: Ala-scan peptide on the array; also called Peptide no; S86A
# T15 peptide: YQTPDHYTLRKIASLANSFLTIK
# Procedure: as §1, §2
# [17] = biological target: T16, Peptide no. 43 (Figure 8A); experiment: as above
# T16 construct: Ala-scan peptide on the array; also called Peptide no; P77A
# T16 peptide: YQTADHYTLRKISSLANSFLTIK
# Procedure: as §1, §2
# [18] = biological target: T17, Peptide no. 49 (Figure 8A); experiment: as above
# T17 construct: Ala-scan peptide on the array; also called Peptide no; R83A
# T17 peptide: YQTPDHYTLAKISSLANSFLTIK
# Procedure: as §1, §2
# [19] = biological target: T18, Peptide no. 48 (Figure 8A); experiment: as above
# T18 construct: Ala-scan peptide on the array; also called Peptide no; L82A
# T18 peptide: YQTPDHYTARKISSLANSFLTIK
# Procedure: as §1, §2
# [20] = biological target: T19, Peptide no. 41 (Figure 8A); experiment: as above
# T19 construct: Ala-scan peptide on the array; also called Peptide no; Q75A
# T19 peptide: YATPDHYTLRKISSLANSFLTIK
# Procedure: as §1, §2
binder,measurement,setting,value
B1,"IC50, inhibition of IL20 induced proliferation of BaF-3(hIL20R) at 1e-9M hIL20 (assay 1)",[1],180 nM
same,"IC50, inhibition of IL20 induced proliferation of BaF-3(hIL20R) at 1e-9M hIL20 (assay 2)",[1],420 nM
same,"IC50, inhibition of IL20 induced proliferation of BaF-3(hIL20R) at 1e-9M hIL20 (assay 3)",[1],340 nM
same,"IC50, inhibition of IL20 induced proliferation of BaF-3(hIL20R) at 1e-9M hIL20 (assay 6)",[1],120 nM
same,"IC50, inhibition of IL20 induced proliferation of BaF-3(hIL20R) at 1e-9M hIL20 (assay 7)",[1],436 nM
same,Kd,[2],0.55 nM
same,koff,[2],0.00011 s⁻¹
same,kon,[2],190000 M⁻¹ s⁻¹
B2,binding result,[3],binds
same,binding result,[4],binds
same,"IC50, inhibition of IL20 induced proliferation of BaF-3(hIL20R) at 1e-9M hIL20 (assay 1)",[1],260 nM
same,"IC50, inhibition of IL20 induced proliferation of BaF-3(hIL20R) at 1e-9M hIL20 (assay 2)",[1],4540 nM
same,"IC50, inhibition of IL20 induced proliferation of BaF-3(hIL20R) at 1e-9M hIL20 (assay 3)",[1],760 nM
same,"IC50, inhibition of IL20 induced proliferation of BaF-3(hIL20R) at 1e-9M hIL20 (assay 6)",[1],200 nM
same,binding result,[5],binds
same,binding result,[6],binds
same,binding result,[7],binds
same,binding result,[8],binds
same,binding result,[9],binds
same,binding result,[10],binds
same,binding result,[11],binds
same,binding result,[12],binds
same,binding result,[13],binds
same,binding result,[14],binds
same,binding result,[15],binds
same,binding result,[16],binds
same,binding result,[17],binds
same,binding result,[18],binds
same,binding result,[19],binds
same,binding result,[20],binds
same,Kd,[2],0.75 nM
same,koff,[2],0.0001 s⁻¹
same,kon,[2],140000 M⁻¹ s⁻¹
